Experiment [1] has as its target delta opioid receptor (UniProt P41143). The experiment in a line: PDSP receptor binding, selectivity against MOR.
The target is the same in experiment [2]. The experiment in a line: PDSP receptor binding; log of Ki in M.
Experiment [3] shares this target. The experiment in a line: PDSP receptor binding.

Broadly, the Ki is the dissociation constant of the complex between target and ligand, obtained from inhibition or displacement. A lower Ki goes with higher affinity. Consider ZH853 (peptide), for which the del/mu (ratio of Ki at DOR to Ki at MOR) in the experiment with delta opioid receptor [1] stood at 291. In the experiment with delta opioid receptor [2], this substance returned a Log Ki of -6.57. In the experiment with delta opioid receptor [3], this substance returned a Ki of 271 nM.

(Values after patent US20250296958A1, “GL[…] E[…]” (THE ADMINISTRATORS OF THE TULANE EDUCATIONAL FUND, priority 2022, published 2025).)
